Key:
Details in all cases: protein: recombinant;recombinant, tags: His-TEV tag, removed by TEV protease;His-TEV tag, chain copies: 2;2, label: 3' Tamra~Q on FL1013, blunt
[1] = target: T1, DNA gyrase subunit A (GyrA);DNA gyrase subunit B (GyrB) (Mycobacterium …, UniProt P9WG47;P9WG45 1-838;1-675, |); experiment: EMSA; 2 mM Mg2+, 5% PEG400
[2] = target: T1, DNA gyrase subunit A (GyrA);DNA gyrase …; experiment: EMSA; 2 mM Mg2+, no crowding agent
[3] = target: T1, DNA gyrase subunit A (GyrA);DNA gyrase …; experiment: EMSA; 2 mM Mg2+, 2 M glycine betaine

T1 sequence (P9WG47 whole entry, chain 1 of 2): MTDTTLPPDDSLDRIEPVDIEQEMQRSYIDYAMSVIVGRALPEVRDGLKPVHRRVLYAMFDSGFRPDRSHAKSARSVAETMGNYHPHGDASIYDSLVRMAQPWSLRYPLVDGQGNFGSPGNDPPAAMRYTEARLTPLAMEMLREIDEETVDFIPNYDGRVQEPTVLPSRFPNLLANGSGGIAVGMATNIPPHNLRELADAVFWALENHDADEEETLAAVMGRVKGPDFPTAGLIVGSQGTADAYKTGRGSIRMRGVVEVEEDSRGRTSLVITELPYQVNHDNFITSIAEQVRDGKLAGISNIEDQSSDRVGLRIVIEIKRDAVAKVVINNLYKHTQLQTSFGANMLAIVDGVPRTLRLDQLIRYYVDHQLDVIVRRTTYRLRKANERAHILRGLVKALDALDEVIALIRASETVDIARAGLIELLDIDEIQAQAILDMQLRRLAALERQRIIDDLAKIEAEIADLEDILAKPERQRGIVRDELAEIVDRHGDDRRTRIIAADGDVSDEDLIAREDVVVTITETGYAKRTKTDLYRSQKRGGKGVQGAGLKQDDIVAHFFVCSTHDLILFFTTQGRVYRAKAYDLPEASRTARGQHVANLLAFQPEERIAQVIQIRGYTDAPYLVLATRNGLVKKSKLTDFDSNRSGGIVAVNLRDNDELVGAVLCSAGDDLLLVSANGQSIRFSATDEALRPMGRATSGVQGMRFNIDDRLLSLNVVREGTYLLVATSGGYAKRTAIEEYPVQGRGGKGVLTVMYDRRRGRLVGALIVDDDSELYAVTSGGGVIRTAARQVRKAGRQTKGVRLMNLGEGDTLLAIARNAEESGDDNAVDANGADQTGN
T1 sequence (P9WG45 whole entry, chain 2 of 2): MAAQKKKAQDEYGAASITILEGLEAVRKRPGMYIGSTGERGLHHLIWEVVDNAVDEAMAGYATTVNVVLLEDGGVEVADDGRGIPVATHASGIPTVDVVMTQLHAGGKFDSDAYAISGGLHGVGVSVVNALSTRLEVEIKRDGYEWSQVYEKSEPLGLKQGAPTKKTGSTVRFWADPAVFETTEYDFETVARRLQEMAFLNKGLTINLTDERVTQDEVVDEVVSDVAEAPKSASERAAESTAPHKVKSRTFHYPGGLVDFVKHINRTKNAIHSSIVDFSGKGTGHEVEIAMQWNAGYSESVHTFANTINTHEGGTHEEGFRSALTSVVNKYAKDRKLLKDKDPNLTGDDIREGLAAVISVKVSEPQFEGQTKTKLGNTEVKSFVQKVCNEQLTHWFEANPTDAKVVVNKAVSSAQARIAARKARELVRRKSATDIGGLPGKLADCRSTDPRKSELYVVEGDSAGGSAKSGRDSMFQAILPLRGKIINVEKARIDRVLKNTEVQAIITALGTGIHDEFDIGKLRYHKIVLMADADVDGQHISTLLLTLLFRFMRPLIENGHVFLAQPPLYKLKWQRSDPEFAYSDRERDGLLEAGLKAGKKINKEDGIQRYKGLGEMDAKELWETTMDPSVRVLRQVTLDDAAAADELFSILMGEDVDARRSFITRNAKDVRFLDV

B1: 50 bp DNA oligomer (FL1013/FL1014) (dsDNA)
DNA 1: TCAGTCCGACATCGGTCATGAATGACTATGCACGTAAACGAGATGCCAAC
DNA 2: GTTGGCATCTCGTTTACGTGCATAGTCATTCATGACCGATGTCGGACTGA
In the case of B1, the Kd [1] is reported as 60 ± 24 nM, the Kd [2] is reported as 94 ± 4 nM and the Kd [3] is reported as 85 ± 6 nM.
